Values quoted from earlier work as cited in paper PMC2853873.
Where two headings read alike, the source gives them in different places.

Tests used:
[1] = molecular target: ADAMTS-2 (Homo sapiens) (UniProt O95450)
[2] = molecular target: ADAMTS-2 (Homo sapiens) (UniProt O95450); remark: listed apart in the source

UniProt O95450, sequence (O95450 254-1211): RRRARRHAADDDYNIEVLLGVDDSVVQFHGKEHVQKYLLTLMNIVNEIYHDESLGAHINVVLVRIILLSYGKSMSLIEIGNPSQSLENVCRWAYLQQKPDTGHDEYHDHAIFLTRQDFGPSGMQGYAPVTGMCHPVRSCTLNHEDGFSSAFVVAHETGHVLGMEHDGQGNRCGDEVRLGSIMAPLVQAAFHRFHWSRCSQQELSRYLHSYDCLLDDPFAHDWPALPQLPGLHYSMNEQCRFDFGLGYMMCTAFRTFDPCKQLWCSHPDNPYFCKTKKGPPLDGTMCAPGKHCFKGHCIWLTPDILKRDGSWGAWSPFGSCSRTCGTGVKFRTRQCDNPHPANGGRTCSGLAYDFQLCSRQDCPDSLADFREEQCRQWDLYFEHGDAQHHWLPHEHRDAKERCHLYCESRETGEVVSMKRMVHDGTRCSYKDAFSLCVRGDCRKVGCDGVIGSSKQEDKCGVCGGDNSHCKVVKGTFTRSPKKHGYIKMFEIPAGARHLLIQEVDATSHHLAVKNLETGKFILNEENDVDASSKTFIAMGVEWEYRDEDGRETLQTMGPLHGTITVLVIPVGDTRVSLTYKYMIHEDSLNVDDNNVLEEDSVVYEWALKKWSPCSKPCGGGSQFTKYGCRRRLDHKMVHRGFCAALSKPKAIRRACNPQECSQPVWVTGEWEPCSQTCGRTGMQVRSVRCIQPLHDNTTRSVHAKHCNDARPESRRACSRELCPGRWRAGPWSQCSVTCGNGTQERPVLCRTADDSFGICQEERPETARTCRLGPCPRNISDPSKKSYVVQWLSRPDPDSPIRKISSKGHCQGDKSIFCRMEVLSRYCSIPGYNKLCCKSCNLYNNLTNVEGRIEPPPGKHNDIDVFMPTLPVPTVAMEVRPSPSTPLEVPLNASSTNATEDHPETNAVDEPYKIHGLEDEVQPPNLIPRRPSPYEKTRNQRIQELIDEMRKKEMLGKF

Ki [1]: 160 nM
Ki [2]: 600 nM
Substance: N-TIMP-3 N-terminal domain (from UniProt P35625)
